Experimental data: the nanobody polyreactivity screen of Harvey et al. (2022)

Assay: yeast display, Sf9 membrane polyspecificity reagent, FACS + sequencing; frameworks hold sequencing errors
Method in brief: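 Polyreactivity labels are assigned by the sorting gate from which each nanobody was recovered. The gates were low and high (top ~1%), set on anti-HA fluorescence for expression and streptavidin fluorescence for reagent binding. Before sorting, galactose-induced (36–48 hours) yeast display cells were stained for 1 hour at 4 °C with 10% biotinylated, detergent-solubilized Sf9 membrane reagent.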

| Sequence | polyreactivity (PSR sort gate) |
| --- | --- |
| QVQLEESGGGLVQAGGSLRLSCAASGSIFGANAMAWYRQAPGKERDLVAAITTSGGSTFYADSVKGRFTISRDNAKNTVYLQMNCLKPEDNAVYYCAAEWVYSIKSVYIYEMYYWGQGTQVTVSS | low polyreactivity |
| QVQLEESGGGLVQAGGSLRLSCAASGSIFGQYAMGWYRQAPGKERELVAAISTRGGSTRYADSVKGRFTISRDNAKNTVYLQMNSLTPEGTAVYYCAARVPYIRHLAVDYWGQGTQVTVSS | high polyreactivity |
| QVQLEESGGGLVQAGGSLRLSCAASGSIFGTYAMGWYRQAPGKEREFVAAISWSDGSTYYADSVKGRFTISRDNAKNTVYLQMNSLKPEDTAVYYCAVRRVGSIYIDRYIYVVADYDYWGQGTQVTVSS | low polyreactivity |
| QVQLEESGGGLVQAGGSLRLSCAASGSIFGYYAMGWYRQAPGKERELVAAITTGGSTSYADSVKGRFTISRDNAKNTVYLQMNSLKPEDTAVYYCNARFKRLFGRADDYWGQGTQVTVSS | low polyreactivity |
| QVQLEESGGGLVQAGGSLRLSCAASGSIFIRNAMGWYRQAPGKERELVAAISTIGGRTYYADSVKGRFTISRDNAKNTVYLQMNSQKPEDTAVYYCAAEQGTPSTNWFDYWGQGTQVTVSS | low polyreactivity |
| QVQLEESGGGLVQAGGSLRLSCAASGSIFIYYAMGWYRQAPGKERELVAGINFNGGSTYYADSVKVRFTISRDNAKNTVYLQMNSLKPEDTAVYYCAADELWWTYWDFVTNWYQRDYWGQGTQVTVSS | low polyreactivity |
| QVQLEESGGGLVQAGGSLRLSCAASGSIFNVNTIGWYRQAPGKEREFVAAISYSGGSTYYADSVKGRFTISRDNAKNTVYLQMNSLKAEDTALYYCNVSPTTSGDGGGYDSWGQGTQVTVSS | low polyreactivity |
| QVQLEESGGGLVQAGGSLRLSCAASGSIFRGYAMGWYRQAPGKERELVAAINWSGSSTYYADSVKGRFTISRDNAKNTVYLQMNSPKPEDTAVYYCARVYYNRNLGGDYWGQGTQVTVSS | low polyreactivity |
| QVQLEESGGGLVQAGGSLRLSCAASGSIFRVYAMGWYRQAPGKERELVAAISQSADSTYYADSVKGRFTILRDNAKNTVYFQMNSLKPEDTAVYYCAAEYPYIYRFDYWGQGTQVTVSS | low polyreactivity |
| QVQLEESGGGLVQAGGSLRLSCAASGSIFTVNAMGWYRQATGKQMELVAAISQSGGSTYYADSVKGRFTISRDNAKNTVYLQMNSLKPEDTAVYYCNALLFIVHGDKSQTMDYWGQGTQVTGSS | low polyreactivity |
| QVQLEESGGGLVQAGGSLRLSCAASGSIFVPYAMGWYRQAPGKERELVASISWRGGSTYYADSVKGRFTISRDNAKNTVYLQMNSLKPEDTAVYYCAAQKRGSPGYRRDYWGQGTQVTVSS | high polyreactivity |
| QVQLEESGGGLVQAGGSLRLSCAASGSIFWLYAMGWYRQAPGKEREFVAAITTSGSSTRYADSVKGRFTISRDNAKNTVYVQMNSLKPEDTAVYYCAARNRTFFQPTYYYWGQGTQVTVSS | high polyreactivity |
| QVQLEESGGGLVQAGGSLRLSCAASGSIFYKYAMGWYRQAPGKEREFVATIRYSGGSTYYADSVKGRFTISRDNAKNTVYLQMNILKPEDTAVFYCAADAYSYGYDSWGQGTQVTVSS | high polyreactivity |
| QVQLEESGGGLVQAGGSLRLSCAASGSTFAVYAMGWYRQAPGKERELVAAINRSGDSTYYADSVKGRFTISRDNAKNTVYLQMNSLKPEDTAVYYCAAYQRVRSGVDMYSWGQGTQVTVSS | high polyreactivity |
| QVQLEESGGGLVQAGGSLRLSCAASGSTFDTYAMGWYRPAPGKERELVAGITRRGGRTYYADSVKGRFTISRDTAKNTVYLQKYSLKPEDTAVYYCNAVPQRPVGKRDHWGQGTQVTVSS | high polyreactivity |
| QVQLEESGGGLVQAGGSLRLSCAASGSTFEYKAKGWYRQAPGKERELVASSTNYADSVKGRFTISRDNAKNTVYLQMNSLKPEDTAVYYCAREQGVNRNHDYWGQGTQVTVSS | low polyreactivity |
| QVQLEESGGGLVQAGGSLRLSCAASGSTFFIYAMGWYRQAPGKEREMVAAISGSGGTTYYADSVKGRFTISRDNAKNTVYLQMNSLKPEDTAVYYCAARTFSAFWRGGYDYWGQGTQVTVSS | low polyreactivity |
| QVQLEESGGGLVQAGGSLRLSCAASGSTFHGYAMGWYRQEPGKERELVAAITSGDSTNYADSVKGRFTISRDNAKNTVYLQMNSLKPEDTAVYYCNAEGSSVLTGYWGYPPYWDTYDYWGQGTQVTVSS | low polyreactivity |
| QVQLEESGGGLVQAGGSLRLSCAASGSTFKYYAMGWYRQAHGKERELVAAISRRGGSTYYADSVKGRFTISRDNAKNTVYLQMNSLKPEDTAVYYCAADIIRPVTVDYWGQGTQVTVSS | high polyreactivity |
| QVQLEESGGGLVQAGGSLRLSCAASGSTFQENAMGWYRQAPGKEREFVAAISGSGGSTYYADSVKGRFTISRDNAKNTVYLQMNSLKPEDTAVYYCAARHYFRSRRRYDYWGQGTQVTVSS | low polyreactivity |
| QVQLEESGGGLVQAGGSLRLSCAASGSTFRYYAMGWYRQAPGKERELVAAISRSGGRTYYADSVKGRFTISRDNAKNTVYLQMNSLKPEDTAVYYCATRGDGSSWGDYDYWGQGTQVTVSS | high polyreactivity |
| QVQLEESGGGLVQAGGSLRLSCAASGSTFSYNTMGWYRQAPGKERELVASITWSGGSTNYADSVKGRFTISRDNAKNTVYLQMNSLKPEDTAVYYCAKDYISVWNVRASDYYWYDYWGQGTQVTVSS | low polyreactivity |

| Sequence | polyreactivity (PSR sort gate) |
| --- | --- |
| QVQLEESGGGLVQAGGSLRLSCAASGSTFVYYAMGWYRQSPGKERELVAAISRGGGSTYYADSVKGRFTISRDNAKNTVYLQMNSLKPEDTAVYYCAAVAGYRYYWGQGTQVTVSS | high polyreactivity |
| QVQLEESGGGLVQAGGSLRLSCAASGSTFVYYPMGWYRQATGKERELVAVISDDGGTYYADSVKGRFTISRDNAKNTVYLQMNSLKPEDTAVFYCAKDYYGGAFYWYNDRSGDYWGQGTQVTVSS | low polyreactivity |
| QVQLEESGGGLVQAGGSLRLSCAASGSTYACYYMGWYIQAPGTEREFVAAIDYGGGSTYADSVQGRFTISRDNAKITVYLQMNSLKPEDTAVYYCYADNWVYLYVYWGQGTQVTVSS | low polyreactivity |
| QVQLEESGGGLVQAGGSLRLSCAASGYIFYEYAMGWYRQAPGKERELVAAISRRGGRTYYADSVKGRFTISRDNAKNTVYLQMHSLKPEDTAVYYCAASVRFGDYEYWGQGTQVTVSS | high polyreactivity |
| QVQLEESGGGLVQAGGSLRLSCAASGYTFFTNVMGWYRQAPGKERELVATITTGGSTYADSVKGRFTISRDNAKNTVYLQMNSLKPEDTAVYYCAVDALTGAWLGGYPYWADGYDYWGQGTQVTVSS | low polyreactivity |
| QVQLEESGGGLVQAGGSLRLSCAASGYTFGLYAMGWYRQAPRKERELVAAISSDASTNYADSVKGRFTISRDNAKNTVYLQMNSLKPEDTAVYYCAAAVKRGYAQSFISDGYGYWGQGTQVTVSS | low polyreactivity |
| QVQLEESGGGLVQAGGSLRLSCAASVSIFGVNVMGWYRQAPGKERELVAAISSGGSTNYADSVKGRFTISGDNEKKTVYLLMISLKPDDTAVYFCIAGLGRLYDYWGQGTQVTVSS | low polyreactivity |
| QVQLEESGGGLVQAGGSLRLSCAATGSTFYDYAMGWYRQAPGKERELVASITFTGGSTYYADSVKGRFTISRDNAKNTVYLQMISLKPEDTAVYFCAAYGWRVHDRWFFERDYWGLGTQVTVSS | high polyreactivity |
| QVQLEESGGGLVQAGGSLRLSCAATGYTFEANAMGWYRQAPGKERELVAVITWTGGSTYYADSVKGRFTISRDNAKYTVYLQMNSLKPEDTAVYYCAADGVVPGRFFWPAHEYDFWGQGTQVTVSS | low polyreactivity |
| QVQLEESGGGLVQAGGSLRLSCAAYGRTFPNYAMGRYRQAPGKEREMVADISSSGVSTYYADSVKGRFTISRDNAKNTVYLKMNSLKPEDTAVYYCAARSWWFQRGEYWGQGTQVTVSS | high polyreactivity |
| QVQLEESGGGLVQAGGSLRLSCAPSGSIFFYYAMGWYRQAPGKERELVAAITFTGGSTYYADSVKGRFTISRDNANNTVYLQMNSLNPEDTAVSYCAADWYYGDEYEYWGQGTQVTVSS | high polyreactivity |
| QVQLEESGGGLVQAGGSLRLSCDASGSTLLYYAMGWYRPAPGKERELVAAISWRGGSTYYADSVKGRFTISRDNAKNTVYLQMNSLKPEDTAVYYCAARSLRLVGPYYYWGEGTQVTVSS | high polyreactivity |
| QVQLEESGGGLVQAGGSLRLSFAASGRTFWWYAMGWYRQAPGKERELVAAITWSGGSTYYADSVKGRFTISRDNAKNTVYLQMNSLKPEDTAVYYCAAYVHNKYDYWGQGTQVTVSS | low polyreactivity |
| QVQLEESGGGLVQAGGSLRLSSAASGIIFGTNAMGWYRQAPGKERELVAGITSSGDSTYYADSVKGRFTISRDNPKNTVYLQMNSLKPEDTAVYYCARDIRTREFDSWGQGTQVTVSS | low polyreactivity |
| QVQLEESGGGLVQAGGSLRLSSAASGSIFGVNPMGWYRQTPGKERELVARINWSSGRTYYADSVKGRFTISRDNAKNTVYLQMNCLKPEDTAVYYCAAAYWRPGVRFFGPYDYWGQGTQVTVSS | high polyreactivity |
| QVQLEESGGGLVQAGGSLRLSWAASGSTFVPNAMGWYRQAPGKERELVAAISYSGGTTYYADSVKGRFTISRDNAKNTVYLQMNSLKPEDTAVYYCAARSKGAAAILDDYWGQGTQVTVSS | low polyreactivity |
| QVQLEESGGGLVQAGGSLRLTCAASGRILGYSAMGWYRQAPGKERELVAAISSGDSTNSADSVKGRFTISRDNAKITVYLQMNSLKPEDTAVYYCAAKGCIWNPYNYWGQGTQVTVSS | low polyreactivity |
| QVQLEESGGGLVQAGGSLRLTCAASGRTFYNNAMGWYRQAPGKERQLVATISKSGGSTNYADSVKGRFTISRDNAKNTVYLQMNSLKPEDNAVYYCAADTSGGSWGRGRWKYGYWGQGTQVTVSS | high polyreactivity |
| QVQLEESGGGLVQAGGSLRLTCAPSGTTFSRYVMGWYRQAPGKERELVAAINRSSGSTYYADSVKGRFTISRDNAKNTVYLQMNSLKPEDTAVYYCAALYRKRGSVQYDYWGQGTQVTVSS | high polyreactivity |
| QVQLEESGGGLVQAGGSLRVSCSASGSTYLDYHMGWYRQAPGQQRELVAAITDSGGRTYYADSVKARFTISRDNAKNTVYFQMKSLKPEDTAVYYCARDRGKITPYDYWGQGTQVTVSS | low polyreactivity |
| QVQLEESGGGLVQAGGSLSLSCAASGRNMPYNVMAWYIQATGKEREFVAAITGSGGDTYYADSVKGRFTISRDNAKNTVYLQMNSLKPEDTAVYYCAAAPYIGCSFGQTPGSGYWGQGTQVTVSS | low polyreactivity |
